Test results reported in patent US20250361296A1 (BIOCYTOGEN PHARMACEUTICALS BEIJING, published 2025).

Key:
[1] = target: T1, human SIGLEC15 on CHO-S-hSIGLEC15 cells (human, UniProt Q6ZMC9 20-328); assay: flow cytometry (MFI) on CHO-S-hSIGLEC15 cells; antibody sample: pH 3.5 6 h
T1 sequence: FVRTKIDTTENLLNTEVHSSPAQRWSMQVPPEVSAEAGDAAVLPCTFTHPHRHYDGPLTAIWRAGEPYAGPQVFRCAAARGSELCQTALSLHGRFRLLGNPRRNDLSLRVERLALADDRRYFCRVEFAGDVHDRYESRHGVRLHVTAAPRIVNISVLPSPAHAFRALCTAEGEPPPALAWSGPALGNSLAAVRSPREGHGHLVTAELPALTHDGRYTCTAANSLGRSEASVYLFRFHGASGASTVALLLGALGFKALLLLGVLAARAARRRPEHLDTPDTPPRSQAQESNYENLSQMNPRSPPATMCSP
Protocol: (§1) In the activity detection experiment, 30 μL of CHO-S-hSIGLEC15 cells were added to the culture plate, and the antibody to be tested was added in a gradient dilution ([…]), and incubated at 4° C. for 30 min. The plate was washed with PBS, and diluted secondary antibody Anti-hIgG-Fc-Alex Flour 647 (RL1-H) (1:2000) was added, incubated at 4° C. for 30 min. The plate was washed once with PBS and the cells were resuspended for flow cytometry detection. MFI value was derived by FlowJo 7.6.1 analysis to calculate EC50.

[2] = target: T1, human SIGLEC15 on CHO-S-hSIGLEC15 cells; assay: flow cytometry (MFI) on CHO-S-hSIGLEC15 cells; antibody sample: pH 3.5 0 h
Protocol: as §1

[3] = target: T2, His-tagged mouse SIGLEC15 protein (mSIGLEC15-His, ACROBiosystems Inc., Cat #: SG5-M52H7) (mouse); assay: SPR (Biacore 8K), antibody captured on Protein A chip, His-tagged SIGLEC15 as analyte
T2 construct: Bought protein; not shown: His tag
T2 chain: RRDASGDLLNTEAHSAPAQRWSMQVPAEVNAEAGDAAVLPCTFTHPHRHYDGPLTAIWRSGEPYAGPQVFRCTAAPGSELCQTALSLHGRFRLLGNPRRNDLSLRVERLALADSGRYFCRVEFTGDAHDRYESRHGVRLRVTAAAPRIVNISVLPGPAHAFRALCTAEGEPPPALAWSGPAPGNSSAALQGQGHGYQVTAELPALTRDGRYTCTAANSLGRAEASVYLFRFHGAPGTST
Protocol: (§2) Purified anti-SIGLEC15 antibodies was captured on the Protein A chip (Series S Sensor Chip Protein A) for the detection. […] The flow rate was 30 μL/min, the binding and dissociation time were set to 180 s and 600 s, respectively. The chip was regenerated after the last injection of each titration with a glycine solution (pH 2.0) at 30 μL/min for 30 seconds.
(§3) Kinetic association rates (kon) and dissociation rates (koff) were obtained simultaneously by fitting the data globally to a 1:1 Langmuir binding model (Karlsson, R. Roos, H. Fagerstam, L. Petersson, B., 1994. Methods Enzymology 6. 99-110) using Biacore™ 8K Evaluation Software 3.0. Affinities were deduced from the quotient of the kinetic rate constants (KD=koff/kon). As a person of ordinary skill in the art would understand, the same method with appropriate adjustments for parameters (e.g., antibody concentration) was performed for each tested antibody.

[4] = target: T3, His-tagged human SIGLEC15 protein (hSIGLEC15-His, Novoprotein Scientific Inc., Cat #: CW37) (human, UniProt Q6ZMC9 20-263); assay: as above
T3 construct: Bought protein; not shown: His tag
T3 sequence: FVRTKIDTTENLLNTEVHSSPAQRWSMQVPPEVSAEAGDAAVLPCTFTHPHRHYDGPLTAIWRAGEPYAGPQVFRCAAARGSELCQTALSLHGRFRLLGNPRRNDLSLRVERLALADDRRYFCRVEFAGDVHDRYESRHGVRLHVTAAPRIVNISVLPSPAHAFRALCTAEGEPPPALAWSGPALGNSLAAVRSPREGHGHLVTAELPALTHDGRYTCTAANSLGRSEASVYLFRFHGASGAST
Protocol: as §2, §3

[5] = target: T1, human SIGLEC15 on CHO-S-hSIGLEC15 cells; assay: flow cytometry (MFI) on CHO-S-hSIGLEC15 cells; antibody sample: 40° C. 7 d
Protocol: as §1

[6] = target: T1, human SIGLEC15 on CHO-S-hSIGLEC15 cells; assay: flow cytometry (MFI) on CHO-S-hSIGLEC15 cells; antibody sample: 4° C. 7 d
Protocol: as §1

[7] = target: T1, human SIGLEC15 on CHO-S-hSIGLEC15 cells; assay: flow cytometry (MFI) on CHO-S-hSIGLEC15 cells; antibody sample: 25° C. 7 d
Protocol: as §1

Binder	EC50 [1] [µg/mL]	EC50 [2] [µg/mL]	Kd [3] [nM]	koff [3] [s⁻¹]	kon [3] [M⁻¹ s⁻¹]	Kd [4] [pM]	koff [4] [s⁻¹]	kon [4] [M⁻¹ s⁻¹]	EC50 [5] [µg/mL]	EC50 [6] [µg/mL]	EC50 [7] [µg/mL]
anti-SIGLEC15 antibody 23F4 (antibody, human IgG1, V domains shown) VH: QVQLQQWGAGLLKPSETLSLTCAVYGGSFSGYFWSWIRQPPGKGLEWIGEINHSGSTNYNPSLKSRVTLSVDTSKNQFSLKLSSVTAADTAVYYCAREGDSSSWGNWFDPWGQGTLVTVSS VL: EIVLTQSPGTLSLSPGERATLSCRASQSVSSSYLAWYQQKPGQAPRFLIYGASSRATGIPDRFSGSGSGTDFTLTISRLEPEDFAVYYCQQFGNSPLTFGGGTKVEIK	0.221	0.148	1.97	0.00126	639000	0.164	6.85e-07	4.19e+06	0.111	0.122	0.106
anti-SIGLEC15 antibody 10C9 (antibody, human IgG1, V domains shown) VH: QVQLVQSGAEVKKPGATVKVSCKASGYTFTNYGFSWVRQAPGQGLEWMGWINTYNDNTNYAQKFQGRVTMTTDTSTSTAYMELRSLRSDDTAVYYCARDGLWFGELPHYFDYWGQGTLVTVSS VL: DIQLTQSPLSSPVTLGQPASISCRSSQSLVNSDGETFLSWLQQRPGQPPRLLIYKISNRFSGVPDRFSGSGAGTDFTLKISRVEAEDVGVYYCMQATQFPHTFGQGTKLEIK	0.11	0.44	2.17	0.00253	1.17e+06	0.0846	2.23e-07	2.63e+06	0.6	0.85	0.65
